Test results as given in patent CN117736324A (BEIJING DONGFANG BIOTECH CO LTD; BEIJING JINGYI TAIXIANG …, dated 2024).

B1: MA-III 噬菌体单克隆抗体 (phage-displayed scFv) (scFv, V domains shown)
VH: QVKLEESGPELVKPGASVKMSCKASGYIFTSYVMHWVRQKPGQGLEWIGYIDPYNDRTKYNEKFKGKATLTSDKSSSTAYMELSSLTSEDSAVYYCARSGDYGSSFDYWGQGTTLTVSS
VL: DIVMTQSPSSLSASLGERVSLTCRASQEISGYLSWLQQKPDGTIKRLIYAASTLDSGVPKRFSGSRSGSDYSLTISSLESEDFADYYCLQYASYPYTFGGGTKLEIK
notes: also called 抗Siglec-15噬菌体单克隆抗体
B2: MA-I 噬菌体单克隆抗体 (phage-displayed scFv) (scFv, V domains shown)
VH: EVKLEQSGPELVKPGASVKISCKASGYTFTDYNMFWVKQSHGKTLEWIGYIYPDNGGTGYNQNFKSKATLTVDNSSSSAYMELRSLTSEDSAVYYCARSEYDYFDYWGQGTTLTVSS
VL: DIVLTQSTSSLSASLGDRVTISCRASQDISNYLNWYQQKPDGTVKLLIYYTSRLHSGVPSRFSGSGSGTDYSLTISNLEQEDIATYFCQQGNTLPLTFGAGTKLELK
notes: as for B1
B3: MA-IV 噬菌体单克隆抗体 (phage-displayed scFv) (scFv, V domains shown)
VH: EVKLQESGAELVKPGASVKLSCIASGFNIKDTFIHWVKQRPEQGLEWIGRIDPASGYTKYDPKFQGKATITTDTSSNTAYLQLSSLTSEDTAVYYCTRSGSYVSFVYWGQGTLVTVSA
VL: DIVMTQTPASLAVSLGQRATISCKASQSVDYDGDSYMNWYQQKPGQPPKLLIYAASNLESGIPARFSGSGSGTDFTLNIHPVEEEDAATYYCQQSNEDPWTFGGGTKLEIK
notes: as for B1
B4: MA-II 噬菌体单克隆抗体 (phage-displayed scFv) (scFv, V domains shown)
VH: EVKLEQSGGGLVKPGGSLKLSCAASGFTFSSYAMSWVRQSPEKRLEWVAEIISGGSHTYYPDTVTGRFTISRDDAKNTLYLEMSSLRSEDTAMYYCARDGNYGYAMDYWGQGTSVTVSS
VL: DIVITQTPAIMSASPGEKVTMTCRASSSVSSSYLHWYQQKSGASPKLWIYSTSNLASGVPARFSGGGSGTSYSLTISSVEAEDDATYYCQQWSGYPWTFGGGTKLEIK
notes: as for B1
B5: 嵌合抗体CA-I (antibody, human IgG1, kappa, L234A L235A)
heavy: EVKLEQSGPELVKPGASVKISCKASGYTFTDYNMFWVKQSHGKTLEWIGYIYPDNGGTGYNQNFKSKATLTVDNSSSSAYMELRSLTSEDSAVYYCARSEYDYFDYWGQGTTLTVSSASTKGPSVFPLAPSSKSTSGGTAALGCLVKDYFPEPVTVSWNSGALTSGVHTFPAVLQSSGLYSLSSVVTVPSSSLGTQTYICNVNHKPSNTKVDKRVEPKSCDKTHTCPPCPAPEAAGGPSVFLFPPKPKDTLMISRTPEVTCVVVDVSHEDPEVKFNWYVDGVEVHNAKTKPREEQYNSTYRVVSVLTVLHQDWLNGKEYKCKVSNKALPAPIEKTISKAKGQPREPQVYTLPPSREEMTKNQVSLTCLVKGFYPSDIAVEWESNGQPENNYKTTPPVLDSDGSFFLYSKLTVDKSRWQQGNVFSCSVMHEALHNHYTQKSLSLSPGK
light: DIVLTQSTSSLSASLGDRVTISCRASQDISNYLNWYQQKPDGTVKLLIYYTSRLHSGVPSRFSGSGSGTDYSLTISNLEQEDIATYFCQQGNTLPLTFGAGTKLELKRTVAAPSVFIFPPSDEQLKSGTASVVCLLNNFYPREAKVQWKVDNALQSGNSQESVTEQDSKDSTYSLSSTLTLSKADYEKHKVYACEVTHQGLSSPVTKSFNRGEC
B6: 人源化抗体分子HA-II (human IgG1/Ck) (antibody, V domains shown)
VH: QVQLVQSGAEVKKPGASVKVSCKASGYTFTDYNMFWVRQAPGQRLEWIGYIYPDNGGTGYNQNFKSKATLTVDNSASTAYMELSSLRSEDTAVYYCARSEYDYFDYWGQGTLVTVSS
VL: DIQLTQSPSSLSASVGDRVTITCRASQDISNYLNWYQQKPGKAPKLLIYYTSRLHSGVPSRFSGSGSGTDYTFTISSLQPEDIATYFCQQGNTLPLTFGQGTKVELKR
notes: also called HA-Ⅱ
B7: MA-I 鼠源抗Siglec-15单克隆抗体 (mouse IgG1/Ck) (antibody)
heavy: EVKLEQSGPELVKPGASVKISCKASGYTFTDYNMFWVKQSHGKTLEWIGYIYPDNGGTGYNQNFKSKATLTVDNSSSSAYMELRSLTSEDSAVYYCARSEYDYFDYWGQGTTLTVSSAKTTPPSVYPLAPGSAAQTNSMVTLGCLVKGYFPEPVTVTWNSGSLSSGVHTFPAVLQSDLYTLSSSVTVPSSTWPSETVTCNVAHPASSTKVDKKIVPRDCGCKPCICTVPEVSSVFIFPPKPKDVLTITLTPKVTCVVVDISKDDPEVQFSWFVDDVEVHTAQTQPREEQFNSTFRSVSELPIMHQDWLNGKEFKCRVNSAAFPAPIEKTISKTKGRPKAPQVYTIPPPKEQMAKDKVSLTCMITDFFPEDITVEWQWNGQPAENYKNTQPIMDTDGSYFVYSKLNVQKSNWEAGNTFTCSVLHEGLHNHHTEKSLSHSPG
light: DIVLTQSTSSLSASLGDRVTISCRASQDISNYLNWYQQKPDGTVKLLIYYTSRLHSGVPSRFSGSGSGTDYSLTISNLEQEDIATYFCQQGNTLPLTFGAGTKLELKADAAPTVSIFPPSSEQLTSGGASVVCFLNNFYPKDINVKWKIDGSERQNGVLNSWTDQDSKDSTYSMSSTLTLTKDEYERHNSYTCEATHKTSTSPIVKSFNRNEC
notes: also called MA-1; 鼠源抗体分子
B8: MA-III 鼠源抗Siglec-15单克隆抗体 (mouse IgG1/Ck) (antibody, V domains shown)
VH: B1 VH
VL: DIVMTQSPSSLSASLGERVSLTCRASQEISGYLSWLQQKPDGTIKRLIYAASTLDSGVPKRFSGSRSGSDYSLTISSLESEDFADYYCLQYASYPYTFGGGTKLEIKA
notes: also called 鼠源抗体分子
B9: MA-IV 鼠源抗Siglec-15单克隆抗体 (mouse IgG1/Ck) (antibody, V domains shown)
VH: B3 VH
VL: DIVMTQTPASLAVSLGQRATISCKASQSVDYDGDSYMNWYQQKPGQPPKLLIYAASNLESGIPARFSGSGSGTDFTLNIHPVEEEDAATYYCQQSNEDPWTFGGGTKLEIKA
notes: also called 鼠源抗体分子
B10: MA-II 鼠源抗Siglec-15单克隆抗体 (mouse IgG1/Ck) (antibody, V domains shown)
VH: B4 VH
VL: DIVITQTPAIMSASPGEKVTMTCRASSSVSSSYLHWYQQKSGASPKLWIYSTSNLASGVPARFSGGGSGTSYSLTISSVEAEDDATYYCQQWSGYPWTFGGGTKLEIKA
notes: also called 鼠源抗体分子

biological target: T1, 人Siglec-15抗原 (Siglec-15蛋白胞外段) (human, UniProt Q6ZMC9 20-263); experiment: phage supernatant ELISA, screening of single clones
T1 construct: extracellular domain
T1 sequence (looked up): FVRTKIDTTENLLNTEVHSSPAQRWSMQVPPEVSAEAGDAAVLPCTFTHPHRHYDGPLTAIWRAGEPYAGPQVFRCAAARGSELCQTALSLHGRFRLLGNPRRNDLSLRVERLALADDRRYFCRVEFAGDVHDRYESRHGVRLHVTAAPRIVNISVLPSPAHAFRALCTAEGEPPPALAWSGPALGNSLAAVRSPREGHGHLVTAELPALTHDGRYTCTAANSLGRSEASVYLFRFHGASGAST

Binder	binding result
B1	binds
B2	binds
B3	binds
B4	binds

biological target: T1, 人Siglec-15抗原 (Siglec-15蛋白胞外段); experiment: ELISA, Siglec-15 coated, Goat Anti Human IgG-HRP detection

Binder	binding result
B5	binds
B6	binds

biological target: T1, 人Siglec-15抗原 (Siglec-15蛋白胞外段); experiment: ELISA, Siglec-15 coated, Goat Anti-Mouse IgG-HRP detection

Binder	binding result
B7	binds
B8	binds
B9	binds
B10	binds
